# Laboratory results: US11497796B2, “Agents directed against a cis RGMa/neogenin interaction or lipid rafts and use of the same in methods of treatment” (UNIVERSITY HEALTH NETWORK, priority 2013, dated 2022)
# T1: 4Ig-domain of Neogenin (Gallus gallus, UniProt Q90610)
# T1 construct: made in house
# T1 sequence (Q90610 1-383): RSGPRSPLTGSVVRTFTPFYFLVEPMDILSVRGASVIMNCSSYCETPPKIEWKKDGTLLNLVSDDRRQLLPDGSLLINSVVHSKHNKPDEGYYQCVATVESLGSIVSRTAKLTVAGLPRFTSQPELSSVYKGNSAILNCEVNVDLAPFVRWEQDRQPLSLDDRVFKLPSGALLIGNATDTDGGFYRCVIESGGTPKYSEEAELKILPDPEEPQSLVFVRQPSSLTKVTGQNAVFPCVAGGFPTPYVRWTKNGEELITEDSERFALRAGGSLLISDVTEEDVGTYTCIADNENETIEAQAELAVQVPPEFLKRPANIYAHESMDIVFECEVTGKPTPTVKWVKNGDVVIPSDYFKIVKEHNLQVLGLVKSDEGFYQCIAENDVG
# Key:
# [1] = target: T1, 4Ig-domain of Neogenin; assay: ELISA / AP binding assay of RGMa peptides to Neogenin domains; details: ELISA, Neogenin domains fused to AP
# From the text: Specifically, the 4Ig-domain and 6FNIII-domain of Neogenin were each fused to alkaline phosphatase (AP). The 4Ig-domain and 6FNIII-domain of Neogenin were found in the extracellular portion of Neogenin. Accession No. AAC59662 (SEQ ID NO:1) was the amino acid sequence of Neogenin. The 4Ig-domain was amino acids 1 to 383 of Accession No. AAC59662 (SEQ ID NO:1). The 6FNIII-domain was amino acids 429 to 1036 of Accession No. AAC59662 (SEQ ID NO:1).
# The binding of these fusions to various RGMa peptides were analyzed in an ELISA assay (FIG. 2A).
# To determine if distinct N-terminal regions of RGMa bound the 4Ig- and 6FNIII-domains of Neogenin, peptides were generated that spanned the N-terminal region of RGMa. The amino acid sequence of RGMa was Accession No. NP_989868.1 (SEQ ID NO:6). These peptides were a peptide spanning amino acids 28-73 of RGMa (also referred to herein as “N-Raft”) and a peptide spanning amino acids 77-113 of RGMa (also referred to herein as “N-inh”). […] In a complementary experiment, in which the N-Raft and N-inh peptides of RGMa were fused with AP instead of the 4Ig- and 6FNIII-domains of Neogenin, N-Raft bound to the 4Ig-domain and not the 6FNIII-domain while N-inh bound to the 6FNIII-domain and not the 4Ig-domain (FIG. 9). Additionally, N-inh and N-Raft coated beads pulled down 6FNIII-domain and 4Ig-domain, respectively, which was consistent with the ELISA results described above (FIG. 2B).
# The assay was conducted in a 96-well microtiter plate (Corning Incorporated). The wells were coated with 100 μl (10 μg/mL) of Poly-L-Lysine at 4° C. overnight. Wells were then washed three times with 100 μl of PB ST (+0.02% Tween).
# 50 μl (2.5 μg/mL) of His-tagged: Full-length Neogenin; the 4Ig-domain of Neogenin; and 6FNIII-domain of Neogenin were coated onto each well for 1 hour at 37° C. Following three washes of 100 μl PBST, each well was then blocked with 300 μl of 3% BSA in PBST for 1 hour at 37° C.
# 50 μl (1.0 μg/mL) AP-tagged: N-RGMa (28-73); N-RGMa (28-54); N-RGMa (40-62); N-RGMa (54-73); N-RGMa (54-62) in 1% BSA+PBST was then added to each well and incubated at 37° C. for 1 hour. Each well was washed thoroughly three times with 100 μl PBST followed by subsequent equilibration of each well with Alkaline Phosphatase (AP) developing buffer (100 mM NaHCO3, 1 mM MgCl2). The reaction was developed using AP developing buffer supplemented with, p-nitrophenyl phosphate (pNPP) (Sigma-Aldrich) and allowed to develop until color development. The reaction was stopped with the addition of 50 μl (0.1M) NaOH. The absorbance of each reaction was measured using a microplate autoreader (BIO-TEK Instruments Inc.) at 405 nanometers (nm) wavelength.
# [2] = system: retinal whole mounts; assay: Oxygen Glucose Deprivation (OGD) in retinal whole mounts, PI staining; type: cell-based; details: OGD in presence of 4Ig
# Method: Specifically, retinal whole mounts were subjected to OGD for 1 hour. After ischemia, whole mounts were incubated for 24 hours and dead cells were identified using propidium iodide (PI) staining.
# To determine whether Neogenin required lipid raft association to induce cell death, OGD was performed on retinal whole mounts in the presence of 4Ig, which as described above, prevented Neogenin localization into lipid rafts.
# [3] = system: EAE paralysis; assay: EAE mouse model of multiple sclerosis; type: in vivo; details: 3 μg IV at days 3, 6, 9; after 17 days; control approaching 5
# Method: Specifically, whether or not 4Ig reduced paralysis in the EAE model was tested. To induce EAE, C57BL6/J mice were injected with an emulsion of MOGp35-55 peptide (50 μg, day 0) mixed with complete Freund's adjuvant (CFA). On day 2, the animals also received 400 ng of pertussis toxin (PTX) intraperitoneally in order to produce severe and reliable EAE and then were examined for clinical signs in over a 17 day period (FIG. 28).
# At days 3, 6, and 9 post-EAE induction, animals were treated with either 3 μg of 4Ig in PBS (IV injection) or PBS (Control).
molecule,measurement,setting,value
N-Raft: peptide spanning amino acids 28-73 of RGMa (SEQ ID NO:2) (SPCKILKCNSEFWAATSGSHHLGAEETPEFCTALRAYAHCTRRTAR; N-Raft - amino acids 28-73 of RGMa),interaction with the 4Ig-domain of Neogenin,[1],interacted
"4Ig: four immunoglobulin-like domains of Neogenin, amino acids 1 to 383 of Accession No. AAC59662 (SEQ ID NO:1) (protein, listed as Gallus gallus, Neogenin - Accession No. AAC59662) RSGPRSPLTGSVVRTFTPFYFLVEPMDILSVRGASVIMNCSSYCETPPKIEWKKDGTLLNLVSDDRRQLLPDGSLLINSVVHSKHNKPDEGYYQCVATVESLGSIVSRTAKLTVAGLPRFTSQPELSSVYKGNSAILNCEVNVDLAPFVRWEQDRQPLSLDDRVFKLPSGALLIGNATDTDGGFYRCVIESGGTPKYSEEAELKILPDPEEPQSLVFVRQPSSLTKVTGQNAVFPCVAGGFPTPYVRWTKNGEELITEDSERFALRAGGSLLISDVTEEDVGTYTCIADNENETIEAQAELAVQVPPEFLKRPANIYAHESMDIVFECEVTGKPTPTVKWVKNGDVVIPSDYFKIVKEHNLQVLGLVKSDEGFYQCIAENDVGNAQAGAQLIILDLDVAIPTLPPTSLTSATNDHLAPATTGPLPTAPRDVVATLVSTRFIRLTWRTPVSDPQGDNLTYSIFYTKEGINRERVENTSRPGETQVMIQNLMPETVYVFRVVAQNKHGHGESSAPLKVATQPEVQLPGPAPNIRAYAGSPTSVTVTWETPLSGNGEIQNYKLYYMEKGQDSEQDVDVAGLSYTITGLKKYTEYSFRVVAYNKHGPGVSTQDVVVRTLSDVPSAAPQNLTLEARNSKSIMLHWQPPPAGTHSGQITGYKIRYRKVSRKSDVTESVGGTQLFQLIEGLERGTEYNFRIAAMTVNGTGPATDWVSAETFESDLDESRVPEVPSSLHVRPLVTSIVVSWTPPENQNIVVRGYAIGYGIGSPHAQTIKVDYKQRYYTIENLDPSSHYVITLKAFNNVGEGIPLYESAVTRPHSDTSEVDLFVINAPYTPVPDPSPMMPPVGVQASILSHDTIRITWADNSLPKNQKITDARYYTVRWKTNIPANTKYKTANATTLSYLVTGLKPNTLYEFSVMVTKGRRSSTWSMTAHGTTFELVPTSPPKDVTVVSKEGKPRTIIVNWQPPSEANGKITGYIIYYSTDVNAEIHDWVIEPVVGNRLTHQIQELTLDTPYYFKIQARNSKGMGPMSEAVQFRTPKAESSDKMPNDQASGSAGKGSRPVDVGPDYKPPLSGSNSPHGSPTSPLDSNMLLVIIVSVGVITIVIVVIVAVFCTRRTTSHQKKKRAACKSVNGSHKYKGNSKDVKPPDLWIHHERLELKPIDKSPDPNPIMTDTPIPRNSQDITPVDNSMDSNIHQRRNSYRGHESEDSMSTLAGRRGMRPKMMMPFDSQPPQPVISAHPIHSLDNPHHHFHSGSLASPTRSYLHHQVSPWPVGTSMSHSDRANSTESVRNTPSSDTMPASSSQPCADHQDPDSSSGAYLGSAQEEDAAQSLPTAHVRPSHPLKSFAVPAVPAAGSAYDPTLPSTPLLTQQAPSHPVHSVKTASIGTLGRTRPPMPVVVPSAPDVQETTRMLEDSESSYEPDELTKEMAHLEGLMKDLNAITTA",reduction of the number of dead neurons compared to controls,[2],two-fold
same,clinical score,[3],1.4
